Substrate in this series: CSCC[C@H](NC(=O)[C@H](CC(C)C)NC(=O)[C@H](CCCC/N=C(/C)S)NC(=O)[C@H](CCCCN)NC(=O)[C@H](Cc1c[nH]cn1)NC(=O)[C@H](CCCN=C(N)N)NC(=O)[C@H](CO)NC(=O)[C@@H](NC(=O)[C@H](CO)NC(=O)[C@H](CCC(N)=O)NC(=O)CNC(=O)[C@H](CCCCN)NC(=O)[C@@H](N)CCCCN)[C@@H](C)O)C(=O)N[C@@H](Cc1ccccc1)C(=O)N[C@@H](CCCCN)C(=O)N[C@H](C(=O)N[C@@H](CCC(=O)O)C(=O)NCC(=O)O)[C@@H](C)O
In words: DTNB-based enzymatic assay with purified HDAC8. Type of series: biochemical, human. To be noted: other: peptide as in vitro HDAC8 substrate, 375 nM HDAC8, room temperature, 1 hour, pH 6.8. On the procedure: DTNB-based enzymatic assay. The DTNB data shown in FIG. 4 was generated using the following procedure. A second portion (300 µL) of the above HDAC8 assay mixture was quenched with 600 µL of the stop solution: 3.2 M guanidinium chloride in 100 mM of sodium phosphate (pH 6.8), and was analyzed by the DTNB-based assay procedure according to the invention, i.e. 60 min after the quench and DTNB (100 µL) addition, A412 was recorded for each sample derived at different time points of the same assay reaction. Again, the same assay protocol was used when the HeLa nuclear extracts were used instead of human HDAC8. To measure the kinetic parameters for the thioacetyl-lysine p53 peptide as an in vitro HDAC8 substrate, all the assay reactions contained 375 nM of HDAC8, a range of substrate concentrations varied around the Km value, and were allowed to proceed at room temperature for 1 hour before quenching. Reaction velocities were determined under initial condition (substrate turnover <10%). This experiment was performed twice, and each duplicate measurement agreed within 20%. By using a non-linear least squares approach with the computer program Kaleidagraph (Reading, Pa., USA), kinetic parameters (kcat and Km) were derived from the Michaelis-Menten plot based on the experimental data.
Assay with purified HDAC8. […]

As usually defined, the Km is the concentration of substrate that gives half-maximal velocity. The term kcat denotes the number of substrate molecules converted per active site and unit of time at saturation.

B1: human HDAC8 (Homo sapiens) (protein)
chain: MEEPEEPADSGQSLVPVYIYSPEYVSMCDSLAKIPKRASMVHSLIEAYALHKQMRIVKPKVASMEEMATFHTDAYLQHLQKVSQEGDDDHPDSIEYGLGYDCPATEGIFDYAAAIGGATITAAQCLIDGMCKVAINWSGGWHHAKKDEASGFCYLNDAVLGILRLRRKFERILYVDLDLHHGDGVEDAFSFTSKVMTVSLHKFSPGFFPGTGDVSDVGLGKGRYYSVNVPIQDGIQDEKYYQICESVLKEVYQAFNPKAVVLQLGADTIAGDPMCSFNMTPVGIGKCLKYILQWQLATLILGGGGYNLANTARCWTYLTGVILGKTLSSEIPDHEFFTAYGPDYVLEITPSCRPDRNEPHRIQQILNYIKGNLKHVV
With B1, the Km worked out at 33.7 ± 7.2 µM and the kcat was 0.00433 ± 0.00033 s⁻¹.

(Values after patent US20080286815A1, “SPECTROPHOTOMETRIC ASSAY FOR HUMAN HISTONE DEACETYLASE 8” (THE UNIVERSITY OF AKRON, priority 2007, published 2008).)
